Assay results taken from patent US20240369491A1.

Target: SARS-CoV-2 Spike RBD-His (Cat #: 40592-V08B) (SARS-CoV-2), P0DTC2

CIEEQAKTFLDKFNHEAEDLFYQS (modifications not checked) [Cys-SBP-PEG4] was tested, and the N:Au ratio (XPS) after RBD binding was 1.45.

CIEEQAKTFLDKFNHEAEDLFYQS (modifications not checked) [Cys-SBP] was tested, and the N:Au ratio (XPS) after RBD binding was 1.31.
